{"source": "patent US20200282010A1", "about": "“IMMUNOGENIC COMPOSITIONS AND USES THEREFOR” (Epiaxis Therapeutics Pty Ltd, priority 2017, published 2020)", "key": {"[1]": {"target": "T1, PKC-ε (Homo sapiens, UniProt Q02156)", "T1 construct": "endogenous in cells; host or cells: MCF7", "T1 sequence (Q02156 1-737)": "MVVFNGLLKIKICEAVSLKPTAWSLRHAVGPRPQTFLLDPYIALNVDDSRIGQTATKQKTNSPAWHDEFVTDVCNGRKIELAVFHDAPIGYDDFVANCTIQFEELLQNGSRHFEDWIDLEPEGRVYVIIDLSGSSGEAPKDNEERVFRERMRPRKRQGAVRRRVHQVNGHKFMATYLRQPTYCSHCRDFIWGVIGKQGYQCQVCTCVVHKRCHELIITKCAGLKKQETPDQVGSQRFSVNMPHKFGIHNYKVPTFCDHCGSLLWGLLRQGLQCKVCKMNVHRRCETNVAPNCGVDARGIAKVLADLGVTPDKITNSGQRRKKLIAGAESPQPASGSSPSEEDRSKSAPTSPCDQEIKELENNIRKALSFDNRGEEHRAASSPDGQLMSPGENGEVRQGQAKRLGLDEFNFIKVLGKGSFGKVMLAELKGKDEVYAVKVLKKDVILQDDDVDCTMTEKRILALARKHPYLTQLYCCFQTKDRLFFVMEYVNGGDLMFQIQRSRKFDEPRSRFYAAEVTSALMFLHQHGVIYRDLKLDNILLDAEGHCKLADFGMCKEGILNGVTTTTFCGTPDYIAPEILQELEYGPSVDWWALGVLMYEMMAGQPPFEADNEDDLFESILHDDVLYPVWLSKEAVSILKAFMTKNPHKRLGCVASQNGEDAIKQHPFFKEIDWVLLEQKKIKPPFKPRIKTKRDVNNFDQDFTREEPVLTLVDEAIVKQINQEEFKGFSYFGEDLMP", "assay": "Nuclear localization of PKC-ε (Fn/c, immunofluorescence), specificity", "assay_type": "cell-based", "details": "MCF7 breast cancer cell line; FIG. 1D", "source_text": "(§1) FIG. 1 is a graphical, schematic and photographic representation showing that PKC-θ can be targeted for therapeutic intervention. A) Depicts the strength of binding of recombinant purified His6-PKC-θ to increasing concentrations of different subunits and subunit combinations (α2, α2β1, and β1) of the importin α/β heterodimer nuclear transport receptor using an AlphaScreen® binding assay as described in Wagstaff et al. (2011. Journal of Biomolecular Screening 16 (2):192-200). B-C) Depicts protein structure of PKC-θ indicating binding locations for the PKC-θ peptide inhibitor, PKCθi (RKEIDPPFRPKVK), including the nuclear localization sequence (NLS) of PKC-θ. D) The specificity of PKCθi was examined on cells treated with this peptide inhibitor. Cells were screened with primary antibodies to PKC-θ (T538p), PKC-β2, PKC-β1, PKC-α, PKC-ε and PKC-γ. The nuclear to cytoplasmic fluorescence ratio (Fn/c) using the equation: Fn/c=(Fn−Fb)/(Fc−Fb), where Fn is nuclear fluorescence, Fc is cytoplasmic fluorescence, and Fb is background fluorescence was used to determine the impact on nuclear translocation/localization. […] EC^50 of inhibitors calculated using GraphPad PRISM software. F) The PKC-θ kinase activity was measured using the PKC kinase activity kit from ENZO life sciences and recombinant PKC-θ; C27 is an inhibitor of PKC-θ kinase activity, which is disclosed in Jimenez et al. (2013. […]"}, "[2]": {"target": "recombinant PKC-θ (Homo sapiens, UniProt Q04759)", "sequence (Q04759 whole entry)": "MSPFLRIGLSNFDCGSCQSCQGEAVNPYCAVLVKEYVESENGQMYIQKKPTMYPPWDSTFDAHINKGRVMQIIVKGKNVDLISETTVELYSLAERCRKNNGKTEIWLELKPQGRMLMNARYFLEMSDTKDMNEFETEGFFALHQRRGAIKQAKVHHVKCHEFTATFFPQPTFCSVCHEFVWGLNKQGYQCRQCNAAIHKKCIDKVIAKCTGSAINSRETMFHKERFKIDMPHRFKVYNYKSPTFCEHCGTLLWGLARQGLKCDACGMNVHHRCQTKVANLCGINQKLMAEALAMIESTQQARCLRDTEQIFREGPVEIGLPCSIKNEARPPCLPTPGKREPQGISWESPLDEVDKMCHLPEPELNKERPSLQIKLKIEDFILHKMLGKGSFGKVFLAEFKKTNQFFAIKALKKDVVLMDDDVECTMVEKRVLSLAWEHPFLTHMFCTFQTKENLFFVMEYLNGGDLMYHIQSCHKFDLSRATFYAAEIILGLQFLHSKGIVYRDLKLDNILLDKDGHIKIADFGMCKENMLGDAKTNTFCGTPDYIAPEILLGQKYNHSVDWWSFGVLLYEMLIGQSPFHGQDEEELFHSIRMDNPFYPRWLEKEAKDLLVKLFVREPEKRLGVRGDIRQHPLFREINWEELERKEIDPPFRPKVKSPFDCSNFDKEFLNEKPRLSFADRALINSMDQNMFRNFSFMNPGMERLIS", "assay": "PKC-θ kinase activity (PKC kinase activity kit, ENZO life sciences)", "assay_type": "biochemical", "details": "FIG. 1F", "source_text": "as §1"}}}
{"sequence": "RKEIDPPFRPKVK [PKCθi]", "values": [{"measurement": "nuclear localization of PKC-ε", "setting": "[1]", "value": "no effect"}, {"measurement": "PKC-θ catalytic activity", "setting": "[2]", "value": "without impacting"}]}
